Experimental data taken from the DeepSol protein solubility set.

Experiment: soluble on expression in E. coli; label from the status in PepcDB or PDB records

**Q.** Which “soluble on expression in E. coli” value does the source give for “MGSDKIHHHHHHMDLRSDALQILKDTSRTFYIPISILPSGLQEAVASAYLCMRAIDEIEDHPTLDNPTKAKLLRGISLTLQAGVDGFPVDAFAAGFSGYENTLAEVTMRIREWSLLAPETIAPRIWDATAAMSDRMAYWAENNWKIYTESDLDRYTFGVAGAVGLLLSDLWTWYDGTQTNRTLAIGFGRGLQAVNILRNHVEDLGRGVSFFPDGWDANNMQEYALRNLALADAYTQALPDGPALNFCQIPLTLAHGTIDAIANGKEKLSRNDVMALLEHLITFNLKAG” here?
**A.** Its value is “not soluble”.

**Q.** Which “soluble on expression in E. coli” value does the source give for “MPYAIDFGTTNTVIARWNEATRQGNLIDLPSLSHPLGDSGPLVPSLLYVENAALGQVAIAREVLDRGRDISTDTRFFKNFKRGIGVAVQGFLPQLDGHTLSLETLGQWYLDKLIRILTEQEGQGPDCLALTVPVDSFESYRHWLSHTCRSWGVEEVRLVDEPTAAALGYGVGDASQILVLDFGGGTVDFSWVQLGDRGQKGRSGFLLKWGGILGGSKAEEKSALAKVLAKAGANLGGSDIDYWISEYFTEAQGLQVSPWIRRLAERLKIALGEAEEATEVYFDDQALESYEFQLRRSDLTEILQQRQFFERLTALWEQVQQTAQRRGLTPANLDAVLVVGGTSQLPMVQDWINAQFPAGKIRNQQPFGAIALGALQIYQGREVQDYLYHSYGVRYWNRRKNSHNWHPIIKNGQTYPMAEPIELTLGASLDNQPSIELIVGELGSSIGATEVYFDGNQLITRVLENQAFTVQPLNDRNGARQIAQLSPPGVPGGDRIKVKFWVDDQRYLRLTVEDLLQQKLLLENQVVAQLRLEHHHHHH” here?
**A.** The value was “not soluble”.

**Q.** Which “soluble on expression in E. coli” value does the source give for “MSLSKFVLGGLWPETGSLAYLAPPELAAEKLAVKDINDAGGVLGNKITTVDADTSDADHADQNTSAAQSVLSKNPSFIIGPASSSVVKNTYKSITSQNIPMLSMGATSASFSGLSDYFFRTVAPDTVQGAVMGNLIAQDGVQKLAIAVFNDEYGTGLRDTIVKTASAAGVDIIYGEKDTFDPTETNFSSIATAIKASNPDATLVIAFDQTKPLLKALASAGVNTKKLYFVDGNTSDYSSELDAGLLEGSKGTIPGINPSDDFVKRLESTGVDLKNTTTYGAETYDGIILAALAAQKGGSADGKTIQANMAAVSGSTKGEKCDSYKACVALLKDGKEIQYKGQTSIGAFNDAHDPSSASIGVYKYDADNKPVFDHSQEGSVPKAEGHHHHHH” here?
**A.** Its value is “soluble”.

**Q.** For “MPAGLVISAPASGVGKTTLTLALARAWRNRGLSVQCFKSGPDYIDPAFHAAATGRASVNVDSWAMDRGGIAHLVGRGADADVVLAEGSMGLFDGVAARGVSGTGATADIAEMLGWPVLLVIDPSGQAQTAAAIAAGLRDYRPGVRLAGVVLNRVASPRHEDLVRRALDDAGIAVFGALPRHAEISLPKRHLGLVQAEEQAEIGKLIDEAARFVAEHVDLDAVLQSAAAWAPQPAANGLNVTPPGQRIALARDAAFSFVYPHMLEAWRAAGADISTFSPLADEAPDASADVCWLPGGYPELHAGKIAANARFCSGLRAFAETRPVHGECGGYMVLGTALTDADGVRHEMAGLLGLETSFAKRRMHLGYRLAELAAPMPGHSPGARLRGHEFHYSTIAAQPDMPLAVVHDATGAVIAETGSRRGNATGTFFHLIAEDRLEHHHHHH”, which “soluble on expression in E. coli” value is on record?
**A.** The value was “soluble”.

**Q.** Which “soluble on expression in E. coli” value does the source give for “MIKPLTSSQEEVLKALNDDKYQIVGVFGPTGTGKTLLTLSYGIDVIKQGKFKKFIIVKPIVDIVTKKEITATELPNYHEVILSYIKDVLGPEYSATVDELYKSGRIEILDSRLLRGRTFDDSIIFIDEVQELQPESIIELIIRIGRNSKLVVAGDPVFQSLQMKTFKDPSELVREVLLNEEDAKVIDLGVKDIIRAGAKRGLRLLIEYRLRSRILSEEENKVLNVTKAHAPDADIITVVDLSEEKKKLGLDNLTTVPDSIIVVKEGNIGRLVGKGGERINSTEKEIGKKLRALELSLDFKEYIRAVHPLPWVVKHIEDADFKGNELVVQIKKETGAFMGQKGSYVRFVDEAIRKLLGVGIRVIAKENENS” here?
**A.** Its value is “soluble”.

**Q.** For “MGKPMQVSRYWRHFREKYRLIGGKCENGHLLFPKRPICPICGSRNIEEFQFSGKGKVITWTIVRNPPSGFEYYKPYPLALVQLEEGPVVLAQLTDVEPEEIKEGMEVEMVTRKIREFDEDGLILYGYKFRPIIKSELEHHHHHH”, which “soluble on expression in E. coli” value is on record?
**A.** The value was “soluble”.

**Q.** With “MAANEGNQPIPPEEEKEISSLLESIKIGKTSLKYRCFYLYDDKMTDLTEEQKETLKKLKLYQKEYYDYESKFEYELFLLRQKYHDLYGPIYDKRREALVGNGEAKIGTPNLPEFWLRALRNNNTVSHVIEDHDEEILVYLNDIRCDYIKKNKEKKEGFILSFYFATNPFFSNSVLTKTYHMKCVDCDNEPVLLHTEATVIDWYDNKNILKKNVVKKQHNKNSREVKTVQQTVNRDSFFHFFTSHKVPNSNVIKQLSKHEVAQLEMIIEGDYEVALTIKERIIPYAVDYYLGIIIESESNSIVSDVDSSYSSSENNSNYNSYESNNSAYNDENSNVDTNEYDDNEEEEEGAKSNEDPLTS” as the sequence, how does the “soluble on expression in E. coli” value read?
**A.** Its value is “soluble”.

**Q.** With “MGRSADSFDRALWWGASDEPALAAPPLRGTTDTDVAIVGGGFTGLVTALHLAEAGLAPLVLEARHVGFGASGRNGGQVIPGLKYDPEALLQKFGPDRGRALIDLVGGAADGVFDLIERHRIRCAPRRAGWIQAAHSERALPAVLNRARQWQERGVGVSILSRDEIAARTGTSLYHGGWHDPRAGGLNPLAYARGLGRAAIAAGAHLFEESPALSLIRKGAGWEIRTPEGLVRANRVLIATNAYGEGLLPGLAQSILPVQSMLVATAPLPEDLRARLMPGGVVLSETRKLAFYMRQSDDGRLVLGGRGAVGPMEDGRLMAALEAGLARIFPEAARFGIAQRWSGQLALTLDGLPHLHAPEPGLQVLLGYNGRGIALATALGRMVANHLASGEEPVFPVTPIRPLAWHRLREPVMNAGIRWYWLKDRMGFASLEHHHHHH” as the sequence, how does the “soluble on expression in E. coli” value read?
**A.** Its value is “not soluble”.

**Q.** Which “soluble on expression in E. coli” value does the source give for “PNFSHWGPPRIVEIFREPNVSLGISIVGGQTVIKRLKNGEELKGIFIKQVLEDSPAGKTNALKTGDKILEVSGVDLQNASHSEAVEAIKNAGNPVVFIVQSLSSTPRVIP” here?
**A.** Its value is “soluble”.

**Q.** With “MIPTTATVDDEPGQIKRALIDASAGAISGGVSRSVTSPLDVIKIRFQVQLEPTTSWGLVRGNLSGASKYTGMVQATKDIFREEGFRGFWRGNVPALLMVMPYTSIQFTVLHKLKSFASGSTKTEDHIHLSPYLSFVSGALAGCAATLGSYPFDLLRTILASQGEPKVYPTMRSAFVDIIQSRGIRGLYNGLTPTLVEIVPYAGLQFGTYDMFKRWMMDWNRYKLSSKIPINVDTNLSSFQLFICGLGAGTSAKLVCHPLDVVKKRFQIEGLQRHPRYGARVERRAYRNMLDGLRQIMISEGWHGLYKGIVPSTVKAAPAGAVTFVAYEFTSDWLESISW” as the sequence, how does the “soluble on expression in E. coli” value read?
**A.** The value was “soluble”.

**Q.** With “MEKKITGYTTVDISQWHRKEHFEAFQSVAQCTYNQTVQLDITAFLKTVKKNKHKFYPAFIHILARLMNAHPEFRMAMKDGELVIWDSVHPCYTVFHEQTETFSSLWSEYHDDFRQFLHIYSQDVACYGENLAYFPKGFIENMFFVSANPWVSFTSFDLNVANMDNFFAPVFTMGKYYTQGDKVLMPLAIQVHHAVCDGFHVGRMLNELQQYCDEWQGGA” as the sequence, how does the “soluble on expression in E. coli” value read?
**A.** Its value is “soluble”.

**Q.** Which “soluble on expression in E. coli” value does the source give for “MQASDRFNINSQLEHLQAKYVGTGHADLSRFEWAVNIQRDSYASYIGHYPMLSYFAIAENESIGRERYNFMQKMLLPCGLPPEREEE” here?
**A.** Its value is “soluble”.

**Q.** Which “soluble on expression in E. coli” value does the source give for “GPGSMRSVIRSCVIFPAAGVAMRHDSSQQWVLNVMYGTGLAPRYGSWKSFGVGDALKENDTPVLYCKALVHASGGGRRARDWVAGCSAALFPSYELLKIAMRHNSSEEDVERYRRHLVETLEKAQGPQTGSANDAGNVTSGEDGSKSDTENDTDINMRLSQMPEVRCFVYDAMRAACFHRYKKVPEEQRVKLFTVAARLGLDEGTTMAIWRLVEKEGIVARDKQRALESPWND” here?
**A.** The value was “soluble”.

**Q.** Which “soluble on expression in E. coli” value does the source give for “GSKATDSVLQGSEGNKVKRTSCMYGANCYRKNPVHFQHFSHPGDSDYGGVQIVGQDETDDRPECPYGPSCYRKNPQHKIEYRHNTLPVRNV” here?
**A.** Its value is “soluble”.

**Q.** For “MSLKIAEAAARSGLSIDTIRFYERSGLLPPIARGADGMRRFSPETVDWLRLLASLRETGMELRAMRRFAELYRQGDATIPERRRILQDHAASLNGRRAALDRCAALLAHKLQRYCEIEGEGHHHHHH”, which “soluble on expression in E. coli” value is on record?
**A.** Its value is “not soluble”.

**Q.** Which “soluble on expression in E. coli” value does the source give for “GSGIMAASRPLSRFWEWGKNIVCVGRNYADHVREMRSAVLSEPVLFLKPSTAYAPEGSPILMPAYTRNLHHELELGVVMGKRCRAVPEAAAMDYVGGYALCLDMTARDVQDECKKKGLPWTLAKSFTASCPVSAFVPKEKIPDPHKLKLWLKVNGELRQEGETSSMIFSIPYIISYVSKIITLEEGDIILTGTPKGVGPVKENDEIEAGIHGLVSMTFKVEKPEY” here?
**A.** The value was “soluble”.

**Q.** For “MAALRYAGLDDTDSEDELPPGWEERTTKDGWVYYANHTEEKTQWEHPKTGKRKRVAGDLPYGWEQETDENGQVFFVDHINKRTTYLDPRLAFTVDDNPTKPTTRQRYDGSTTAMEILQGRDFTGKVVLVTGANSGIGFETAKSFALHGAHVILACRNLSRASEAVSRILEEWHKAKVEAMTLDLAVLRSVQHFAEAFKAKNVSLHVLVCNAGTFALPWGLTKDGLETTFQVNHLGHFYLVQLLQDVLCRSSPARVIVVSSESHRFTDINDSSGKLDLSRLSPPRSDYWAMLAYNRSKLCNILFSNELHRRLSPRGVTSNAVHPGNMMYSAIHRNSWVYKLLFTLARPFTKSMQQGAATTVYCAVAPELEGLGGMYFNNCCRCLPSEEAQSEETARALWELSERLIQDRLGSPSS”, which “soluble on expression in E. coli” value is on record?
**A.** Its value is “soluble”.

**Q.** For “MDTPPTVFSIIIPVYNRPDEVRELLESLLIQTNSDFEVIIVEDGSSVCCDKEVDRVRELLRIQYVRVPNGGPAAARNIGARMAVGEYLLILDSDVVLPSGYIAAVKKRIEQMQADAFGGPDAAAEGFSPIQKAINYAMTSFFTTGGIRGGRRVRLDKFYPRSFNFGCKLSVYRQLGGFSEEMRFGEDIDFSLRLFKAGYNVCLFPEAFVFHKRRIDFKKFFRQVYNSGIARIHLQRRHPGSMKP”, which “soluble on expression in E. coli” value is on record?
**A.** The value was “not soluble”.

**Q.** For “MGSSHHHHHSSGENLYFQGHMKHGIYYSYWEHEWSAKFGPYIEKVAKLGFDIIEVAAHHINEYSDAELATIRKSAKDNGIILTAGIGPSKTKNLSSEDAAVRAAGKAFFERTLSNVAKLDIHTIGGALHSYWPIDYSQPVDKAGDYARGVEGINGIADFANDLGINLCIEVLNRFENHVLNTAAEGVAFVKDVGKNNVKVMLDTFHMNIEEDSFGDAIRTAGPLLGHFHTGESNRRVPGKGRMPWHEIGLALRDINYTGAVIMEPFVKTGGTIGSDIKVWRDLSGGADIAKMDEDARNALAFSRFVLGG”, which “soluble on expression in E. coli” value is on record?
**A.** Its value is “soluble”.

**Q.** Which “soluble on expression in E. coli” value does the source give for “MKYDLIIIGSGSVGAAAGYYATRAGLNVLMTDAHMPPHQHGSHHGDTRLIRHAYGEGEKYVPLVLRAQMLWDELSRHNEDDPIFVRSGVINLGPADSTFLANVAHSAEQWQLNVEKLDAQGIMARWPEIRVPDNYIGLFETDSGFLRSELAIKTWIQLAKEAGCAQLFNCPVTAIRHDDDGVTIETADGEYQAKKAIVCAGTWVKDLLPELPVQPVRKVFAWYQADGRYSVKNKFPAFTGELPNGDQYYGFPAENDALKIGKHNGGQVIHSADERVPFAEVVSDGSEAFPFLRNVLPGIGCCLYGAACTYDNSPDEDFIIDTLPGHDNTLLITGLSGHGFKFASVLGEIAADFAQDKKSDFDLTPFRLSRFQ” here?
**A.** Its value is “soluble”.

**Q.** With “MGSDKIHHHHHHMSSNTFTLGTKSVNRLGYGAMQLAGPGVFGPPRDRHVAITVLREALALGVNHIDTSDFYGPHVTNQIIREALYPYSDDLTIVTKIGARRGEDASWLPAFSPAELQKAVHDNLRNLGLDVLDVVNLRVMMGDGHGPAEGSIEASLTVLAEMQQQGLVKHIGLSNVTPTQVAEARKIAEIVCVQNEYNIAHRADDAMIDALAHDGIAYVPFFPLGGFTPLQSSTLSDVAASLGATPMQVALAWLLQRSPNILLIPGTSSVAHLRENMAAEKLHLSEEVLSTLDGISRE” as the sequence, how does the “soluble on expression in E. coli” value read?
**A.** Its value is “not soluble”.
